16 molecules from patent US20230256092A1, “COMBINED USE OF ANTI-CCR8 ANTIBODY AND CHEMOTHERAPEUTIC AGENT” (Shionogi & Co., Ltd., priority 2020, published 2023) can be followed below.

Changes are numbered by the printed parent chain. Names and notes keep the numbering of the source. A value given as a limit tells only on which side of the number the result lay.

B1: h10A11 (IGKV4-1/IGHV3-73 V63L) (antibody, name in Kabat numbering, V domains shown)
VH: EVQLVESGGGLVQPGGSLKLSCAASGFAFNTYALYWVRQASGKGLEWVGRIRSKSNNYATYYADSLKDRFTISRDDSKNTAYLQMNSLKTEDTAVYYCTRARFYYSDYGYAMDYWGQGTLVTVSS
VL: DIVMTQSPDSLAVSLGERATINCRSSKSLLHSNGNTYLYWYQQKPGQPPKLLIYRMSNLASGVPDRFSGSGSGTDFTLTISSLQAEDVAVYYCMQHLEYPLTFGQGTKLEIKR
B2: h10A11 (IGKV4-1/IGHV3-73 A100eV) (antibody, name in Kabat numbering, V domains shown)
VH: B1 VH with L66V, A111V
VL: B1 VL
B3: h10A11 (IGKV4-1/IGHV3-73 Y98F) (antibody, name in Kabat numbering, V domains shown)
VH: B1 VH with L66V, Y104F
VL: B1 VL
B4: h10A11 (IGKV4-1/IGHV3-73 R96K) (antibody, name in Kabat numbering, V domains shown)
VH: B1 VH with L66V, R102K
VL: B1 VL
B5: h10A11 (IGKV4-1/IGHV3-73 Y102F) (antibody, name in Kabat numbering, V domains shown)
VH: B1 VH with L66V, Y114F
VL: B1 VL
B6: h10A11 (IGKV4-1/IGHV3-73 M100fL) (antibody, name in Kabat numbering, V domains shown)
VH: B1 VH with L66V, M112L
VL: B1 VL
B7: h10A11 (IGKV4-1/IGHV3-73 Y100bF) (antibody, name in Kabat numbering, V domains shown)
VH: B1 VH with L66V, Y108F
VL: B1 VL
B8: h10A11 (IGKV4-1/IGHV3-73 Y99F) (antibody, name in Kabat numbering, V domains shown)
VH: B1 VH with L66V, Y105F
VL: B1 VL
B9: h10A11 (IGKV4-1/IGHV3-73 D65E) (antibody, name in Kabat numbering, V domains shown)
VH: B1 VH with L66V, D68E
VL: B1 VL
B10: h10A11 (IGKV4-1/IGHV3-73 Y100dF) (antibody, name in Kabat numbering, V domains shown)
VH: B1 VH with L66V, Y110F
VL: B1 VL
B11: h10A11 (IGKV4-1/IGHV3-73 D100aE) (antibody, name in Kabat numbering, V domains shown)
VH: B1 VH with L66V, D107E
VL: B1 VL
B12: h10A11 (IGKV4-1/IGHV3-73 F97L) (antibody, name in Kabat numbering, V domains shown)
VH: B1 VH with L66V, F103L
VL: B1 VL
B13: h10A11 (IGKV4-1/IGHV3-73 D101E) (antibody, name in Kabat numbering, V domains shown)
VH: B1 VH with L66V, D113E
VL: B1 VL
B14: h10A11 (IGKV4-1/IGHV3-73 G100cA) (antibody, name in Kabat numbering, V domains shown)
VH: B1 VH with L66V, G109A
VL: B1 VL
B15: h10A11 (IGKV4-1/IGHV3-73 K64R) (antibody, name in Kabat numbering, V domains shown)
VH: B1 VH with L66V, K67R
VL: B1 VL
B16: h10A11 (IGKV4-1/IGHV3-73 S100T) (antibody, name in Kabat numbering, V domains shown)
VH: B1 VH with L66V, S106T
VL: B1 VL

This assay addresses human CCR8 (human) (UniProt P51685). The assay is described as follows: cell-based or functional assay.
Consider B1, for which the IC50 ratio (WT IC50/mutant IC50) is 0.56.

For the molecule B2, the IC50 ratio (WT IC50/mutant IC50) was determined as 0.49.

As to B3, the IC50 ratio (WT IC50/mutant IC50) turned out to be 0.07.

In turn, B4 came in with an IC50 (n.d. = IC50 of the mutant is 10 nM or more) of more than 10 nM.

B5: the IC50 ratio (WT IC50/mutant IC50) came to 0.99.

B6: the IC50 ratio (WT IC50/mutant IC50) was 0.72.

B7: the IC50 ratio (WT IC50/mutant IC50) came to 0.75.

As for B8, the IC50 ratio (WT IC50/mutant IC50) turned out to be 0.8.

With B9, the IC50 ratio (WT IC50/mutant IC50) was found to be 1.3.

Take B10: the IC50 ratio (WT IC50/mutant IC50) was 0.55.

With B11, the IC50 ratio (WT IC50/mutant IC50) was 0.3.

Regarding B12, the IC50 (n.d. = IC50 of the mutant is 10 nM or more) is more than 10 nM.

Take B13: the IC50 (n.d. = IC50 of the mutant is 10 nM or more) is more than 10 nM.

Turning to B14, the IC50 ratio (WT IC50/mutant IC50) is 0.07.

As to B15, the IC50 ratio (WT IC50/mutant IC50) amounted to 0.54.

Take B16: the IC50 ratio (WT IC50/mutant IC50) worked out at 0.64.
